Assays:
wild-type MC4R = assay: MC4R activity, cAMP-responsive luciferase reporter in transfected HEK293 cells; type: cell-based, human; settings: constitutive activity; Fig. 1f
MC4R Δ1–24 = MC4R Δ1–24 (Homo sapiens, UniProt P32245); assay: as above; type: cell-based; settings: for stimulation of MC4R Δ1–24 by peptide (efficacy): compared with constitutive activity of wild-type MC4R, normalized to membrane expression, triplicate, Fig. 2a
Chain of MC4R Δ1–24 (P32245 25-332, stated change not applied): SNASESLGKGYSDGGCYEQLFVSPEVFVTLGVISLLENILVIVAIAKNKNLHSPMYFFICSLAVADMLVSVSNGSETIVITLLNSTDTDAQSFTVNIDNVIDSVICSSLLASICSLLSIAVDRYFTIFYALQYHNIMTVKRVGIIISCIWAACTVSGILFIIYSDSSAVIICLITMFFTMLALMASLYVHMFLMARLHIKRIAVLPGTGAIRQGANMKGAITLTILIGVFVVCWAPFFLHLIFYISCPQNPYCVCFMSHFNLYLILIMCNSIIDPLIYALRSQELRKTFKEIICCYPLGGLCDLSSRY

Substance	stimulation of MC4R Δ1–24 by peptide (efficacy) (MC4R Δ1–24)	also measured
Agouti-related protein (SSRRCVRLHESCLGQQVPCCDPCATCYCRFFNAFCYCRKLGTAMNPCSRT; UniProt O00253 83-132, looked up) [AgRP]	–	AgRP inverse agonism of wild-type MC4R (wild-type MC4R): inverse agonism of the wild-type receptor; AgRP antagonism of MC4R 2–26 activation of MC4R Δ1–24 (MC4R Δ1–24; Fig. 1f): inhibits the activation of MC4R Δ1–24 by MC4R 2–26 with similar potency as its inverse agonism of the wild-type receptor; effect on residual N terminal–independent constitutive activity of MC4R Δ1–24 (MC4R Δ1–24; Supplementary Fig. 3a): inhibits the residual N terminal–independent constitutive activity; inhibition of αMSH-induced receptor activation (MC4R Δ1–24; receptor with or without the N-terminal domain, Supplementary Fig. 3e): inhibits αMSH-induced receptor activation independent of the absence or presence of the N-terminal domain
HLWNRS [MC4R 14–19]	not significantly different from the constitutive activity of wild-type MC4R	–
MC4R 2–19: smaller overlapping peptide spanning the MC4R N-terminal domain, residues 2–19 (VNSTHRGMHTSLHLWNRS)	not significantly different from the constitutive activity of wild-type MC4R	–
MC4R 8–20: smaller overlapping peptide spanning the MC4R N-terminal domain, residues 8–20 (GMHTSLHLWNRSS)	not significantly different from the constitutive activity of wild-type MC4R	–
MC4R 8–26: smaller overlapping peptide spanning the MC4R N-terminal domain, residues 8–26 (GMHTSLHLWNRSSYRLHSN)	not significantly different from the constitutive activity of wild-type MC4R	–
MC4R 14–19 H14A: MC4R 14–19 hexapeptide with H14A substitution (ALWNRS)	markedly disrupted MC4R 14–19 efficacy	–
MC4R 14–19 L15A: MC4R 14–19 hexapeptide with L15A substitution (HAWNRS)	not significantly different from the constitutive activity of wild-type MC4R	–
MC4R 14–19 N17A: MC4R 14–19 hexapeptide with N17A substitution (HLWARS)	not significantly different from the constitutive activity of wild-type MC4R	–
MC4R 14–19 R18L: MC4R 14–19 hexapeptide with R18L substitution (HLWNLS)	markedly disrupted MC4R 14–19 efficacy	–
MC4R 14–19 S19A: MC4R 14–19 hexapeptide with S19A substitution (HLWNRA)	not significantly different from the constitutive activity of wild-type MC4R	–
MC4R 14–19 W16A: MC4R 14–19 hexapeptide with W16A substitution (HLANRS)	markedly disrupted MC4R 14–19 efficacy	–
MC4R 14–26: smaller overlapping peptide spanning the MC4R N-terminal domain, residues 14–26 (HLWNRSSYRLHSN)	not significantly different from the constitutive activity of wild-type MC4R	–
